In article PMC2719252:

Target: hexa-His-β6 bundlin (soluble, recombinant WT β6 bundlin) (enteropathogenic Escherichia coli (EPEC) strain RN587/1)
Assay: native MS

**Q.** With “hexa-His-β6 bundlin (soluble, recombinant WT β6 bundlin) (natural protein)” as the substance, how does the stoichiometry N read?
**A.** The stoichiometry N was 2.
